The labels stand for the following.
T1: recombinant human IL-6R sR (R&D systems) (human, UniProt P08887 20-358)
T1 construct: Bought soluble receptor; also called rhIL-6sR; rhIL-s6R
T1 sequence (looked up): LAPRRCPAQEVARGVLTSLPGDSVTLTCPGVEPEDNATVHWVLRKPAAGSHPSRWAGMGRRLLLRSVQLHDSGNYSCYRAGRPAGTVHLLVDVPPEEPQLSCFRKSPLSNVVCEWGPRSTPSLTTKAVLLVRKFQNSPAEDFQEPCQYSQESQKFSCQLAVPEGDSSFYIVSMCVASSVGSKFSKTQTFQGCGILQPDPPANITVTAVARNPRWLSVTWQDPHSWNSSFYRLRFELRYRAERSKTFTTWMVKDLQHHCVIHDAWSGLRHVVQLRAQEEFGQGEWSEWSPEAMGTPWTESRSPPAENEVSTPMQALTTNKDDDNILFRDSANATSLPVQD

T2: soluble human IL-31 receptor (human, UniProt Q8NI17 20-514)
T2 construct: also called soluble NR10; NR10
T2 sequence: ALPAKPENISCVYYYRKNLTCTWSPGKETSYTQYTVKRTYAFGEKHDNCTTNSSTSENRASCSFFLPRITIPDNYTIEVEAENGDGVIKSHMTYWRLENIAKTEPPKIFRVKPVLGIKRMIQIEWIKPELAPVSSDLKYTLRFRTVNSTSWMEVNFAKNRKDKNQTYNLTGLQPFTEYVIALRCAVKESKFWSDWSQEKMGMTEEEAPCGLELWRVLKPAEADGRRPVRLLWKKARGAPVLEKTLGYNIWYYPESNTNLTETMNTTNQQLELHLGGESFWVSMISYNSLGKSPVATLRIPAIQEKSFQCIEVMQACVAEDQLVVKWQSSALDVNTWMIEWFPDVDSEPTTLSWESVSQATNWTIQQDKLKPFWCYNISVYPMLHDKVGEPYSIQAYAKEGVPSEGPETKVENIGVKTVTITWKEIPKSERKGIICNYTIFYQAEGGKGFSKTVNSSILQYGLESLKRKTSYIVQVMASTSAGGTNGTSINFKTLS

B1: RDC-5 (antibody, V domains shown)
VH: QVQLQESGPGLVRPSQTLSLTCTVSGYSITSDHAWSWVRQPPGRGLEWIGYISYSGITTYNPSLKSRVTMLRDTSKNQFSLRLSSVTAADTAVYYCARVLARITAMDYWGQGSLVTVSS
VL: DIQMTQSPSSLSASVGDRVTITCRASQDISSYLNWYQQKPGKAPKLLIYYTSRLHSGVPSRFSGSGSGTDFTFTISSLQPEDIATYYCQQGNTLPYTFGQGTKVEIK
notes: also called RDC-5H/L(WT)
B2: RDC-7 (antibody, V domains shown)
VH: QVQLQESGPGLVRPSQTLSLTCTVSGYSITSDHAWSWVRQPPGRGLEWIGYISYSGITTYNPSLKSRVTMLRDTSKNQFSLRLSSVTAADTAVYYCARTLARITAMDYWGQGSLVTVSS
VL: DIQMTQSPSSLSASVGDRVTITCRASQDISSYLNWYQQKPGKAPKLLIYYTSRLHSGVPSRFSGSGSGTDFTFTISSLQPEDIATYYCQQGNTLPYTFGQGTKVEIK
notes: also called RDC-7H/L(WT)
B3: RDC-11 (antibody, V domains shown)
VH: QVQLQESGPGLVRPSQTLSLTCTVSGYSITSDHAWSWVRQPPGRGLEWIGYISYSGITTYNPSLKSRVTMLRDTSKNQFSLRLSSVTAADTAVYYCARSLARTTAMDYWGQGSLVTVSS
VL: DIQMTQSPSSLSASVGDRVTITCRASQDISSYLNWYQQKPGKAPKLLIYYTSRLHSGVPSRFSGSGSGTDFTFTISSLQPEDIATYYCGQGNRLPYTFGQGTKVEIK
notes: also called H(WT)/RDC-11L
B4: RDC-2 (antibody, V domains shown)
VH: QVQLQESGPGLVRPSQTLSLTCTVSGYSITSDHAWSWVRQPPGRGLEWIGYISYSGITTYNPSLKSRVTMLRDTSKNQFSLRLSSVTAADTAVYYCARVLARATAMDYWGQGSLVTVSS
VL: DIQMTQSPSSLSASVGDRVTITCRASQDISSYLNWYQQKPGKAPKLLIYYTSRLHSGVPSRFSGSGSGTDFTFTISSLQPEDIATYYCQQGNTLPYTFGQGTKVEIK
notes: also called RDC-2H/L(WT)
B5: RDC-8 (antibody, V domains shown)
VH: QVQLQESGPGLVRPSQTLSLTCTVSGYSITSDHAWSWVRQPPGRGLEWIGYISYSGITTYNPSLKSRVTMLRDTSKNQFSLRLSSVTAADTAVYYCARLLARITAMDYWGQGSLVTVSS
VL: DIQMTQSPSSLSASVGDRVTITCRASQDISSYLNWYQQKPGKAPKLLIYYTSRLHSGVPSRFSGSGSGTDFTFTISSLQPEDIATYYCQQGNTLPYTFGQGTKVEIK
notes: also called RDC-8H/L(WT)
B6: RD-28 (antibody, V domains shown)
VH: QVQLQESGPGLVRPSQTLSLTCTVSGYSITSDHAWSWVRQPPGRGLEWIGYISYSGITTYNPSLKSRVTMLRDTSKNQFSLRLSSVTAADTAVYYCARSLARTTAMDYWGQGSLVTVSS
VL: DIQMTQSPSSLSASVGDRVTITCRASQDISSYLNWYQQKPGKAPKLLIYYTSRLHSGVPSRFSGSGSGTDFTFTISSLQPEDIATYYCGQGNTLPYTFGQGTKVEIK
B7: RDC-4 (antibody, V domains shown)
VH: QVQLQESGPGLVRPSQTLSLTCTVSGYSITSDHAWSWVRQPPGRGLEWIGYISYSGITTYNPSLKSRVTMLRDTSKNQFSLRLSSVTAADTAVYYCARTLARATAMDYWGQGSLVTVSS
VL: DIQMTQSPSSLSASVGDRVTITCRASQDISSYLNWYQQKPGKAPKLLIYYTSRLHSGVPSRFSGSGSGTDFTFTISSLQPEDIATYYCQQGNTLPYTFGQGTKVEIK
notes: also called RDC-4H/L(WT)
B8: RDC-6 (antibody, V domains shown)
VH: QVQLQESGPGLVRPSQTLSLTCTVSGYSITSDHAWSWVRQPPGRGLEWIGYISYSGITTYNPSLKSRVTMLRDTSKNQFSLRLSSVTAADTAVYYCARILARITAMDYWGQGSLVTVSS
VL: DIQMTQSPSSLSASVGDRVTITCRASQDISSYLNWYQQKPGKAPKLLIYYTSRLHSGVPSRFSGSGSGTDFTFTISSLQPEDIATYYCQQGNTLPYTFGQGTKVEIK
notes: also called RDC-6H/L(WT)
B9: RDC-3 (antibody, V domains shown)
VH: QVQLQESGPGLVRPSQTLSLTCTVSGYSITSDHAWSWVRQPPGRGLEWIGYISYSGITTYNPSLKSRVTMLRDTSKNQFSLRLSSVTAADTAVYYCARILARATAMDYWGQGSLVTVSS
VL: DIQMTQSPSSLSASVGDRVTITCRASQDISSYLNWYQQKPGKAPKLLIYYTSRLHSGVPSRFSGSGSGTDFTFTISSLQPEDIATYYCQQGNTLPYTFGQGTKVEIK
notes: also called RDC-3H/L(WT)
B10: 31R_H2L2 (antibody, V domains shown)
VH: QVQLVQSGAEVKKPGASVKVSCKASGYTFTGYIMNWVRQAPGQGLEWMGLINPYNGGTSYNQQFQDRVTITADESTSTAYMELSSLRSEDTAVYYCARDGYDDGPYTMDYWGQGTLVTVSS
VL: DIQMTQSPSSLSASVGDRVTITCQTSEDIYSFLAWYQQKPGKAPKLLIYNAQTEAQGVPSRFSGSGSGTDFTLTISSLQPEDFATYYCQHHYESPLTFGGGTKVEIKR
B11: 31R_H3L2 (antibody, V domains shown)
VH: QVQLVQSGAEVKKPGASVKVSCKASGYTFTGYIMNWVRQAPGQGLEWMGLINPYNGGTSYNDQFQDRVTITADESTSTAYMELSSLRSEDTAVYYCARDGYDDGPYTMDYWGQGTLVTVSS
VL: DIQMTQSPSSLSASVGDRVTITCQTSEDIYSFLAWYQQKPGKAPKLLIYNAQTEAQGVPSRFSGSGSGTDFTLTISSLQPEDFATYYCQHHYESPLTFGGGTKVEIKR
B12: 31R_H1L1 (antibody)
heavy: QVQLVQSGAEVKKPGASVKVSCKASGYTFTGYIMNWVRQAPGQGLEWMGLINPYNGGTSYNQKFKGRVTITADESTSTAYMELSSLRSEDTAVYYCARDGYDDGPYTMDYWGQGTLVTVSSASTKGPSVFPLAPSSKSTSESTAALGCLVKDYFPEPVTVSWNSGALTSGVHTFPAVLQSSGLYSLSSVVTVPSSNFGTQTYTCNVDHKPSNTKVDKTVERKSCVECPPCPAPPVAGPSVFLFPPKPKDTLMISRTPEVTCVVVDVSHEDPEVQFNWYVDGVEVHNAKTKPREEQFNSTFRVVSVLTVVHQDWLNGKEYKCKVSNKGLPAPIEKTISKTKGQPREPQVYTLPPSREEMTKNQVSLTCLVKGFYPSDIAVEWESNGQPENNYKTTPPMLDSDGSFFLYSKLTVDKSRWQQGNVFSCSVMHEALHNHYTQKSLSLSPGK
light: DIQMTQSPSSLSASVGDRVTITCRTSENIYSFLAWYQQKPGKAPKLLIYNAKTLAKGVPSRFSGSGSGTDFTLTISSLQPEDFATYYCQHHYESPLTFGGGTKVEIKRTVAAPSVFIFPPSDEQLKSGTASVVCLLNNFYPREAKVQWKVDNALQSGNSQESVTEQDSKDSTYSLSSTLTLSKADYEKHKVYACEVTHQGLSSPVTKSFNRGEC
notes: Anti-human IL-31 receptor antibody

The first assay addresses T1, recombinant human IL-6R sR (R&D systems). Kind of assay: SPR (Biacore T100), antibody captured on Protein A, rhIL-6sR as analyte, 25 C. On the procedure: The antigen-antibody interaction was measured by immobilizing 4,400 to 5,000 RU of rec-Protein A (Zymed) immobilized onto a sensor chip by the amine coupling method, binding various antibodies onto the chip, and then flowing the antigen over the chip as an analyte. For the antigen, various concentrations of rhIL-6sR were used. All measurements were carried out at 25° C. The kinetic parameters, association rate constant kₐ (1/Ms) and dissociation rate constant kd (1/s) were calculated from the sensorgrams obtained by measurement. Then, KD (M) was determined based on the rate constants. The respective parameters were determined using Biacore T100 Evaluation Software (Biacore).
(Surface plasmon resonance follows binding to a sensor surface in real time, without labels.)
Regarding B1, the Kd amounted to 0.022 nM, the koff was found to be 2.8e-05 s⁻¹ and the kon amounted to 1.2e+06 M⁻¹ s⁻¹.
B2: the Kd turned out to be 0.038 nM, the off-rate constant (koff) was determined as 4.2e-05 s⁻¹ and the kon was 1.1e+06 M⁻¹ s⁻¹.
Consider B3, for which the Kd was determined as 0.065 nM, the koff is 7e-05 s⁻¹ and the kon worked out at 1.1e+06 M⁻¹ s⁻¹.
Regarding B4, the Kd amounted to 0.022 nM, the koff was 2.5e-05 s⁻¹ and the on-rate (kon) is 1.1e+06 M⁻¹ s⁻¹.
For the molecule B5, the Kd worked out at 0.025 nM, the off-rate (koff) worked out at 3.6e-05 s⁻¹ and the kon worked out at 1.4e+06 M⁻¹ s⁻¹.
Turning to B6, the Kd amounted to 0.12 nM, the koff was 0.00011 s⁻¹ and the kon is 940000 M⁻¹ s⁻¹.
For B7, the Kd was found to be 0.027 nM, the off-rate constant (koff) stood at 2.9e-05 s⁻¹ and the kon was found to be 1.1e+06 M⁻¹ s⁻¹.
On to B8, for which the equilibrium dissociation constant (Kd) stood at 0.029 nM, the koff came out at 3.5e-05 s⁻¹ and the kon was determined as 1.2e+06 M⁻¹ s⁻¹.
For B9 the same measures were 0.037 nM, 3.7e-05 s⁻¹ and 1e+06 M⁻¹ s⁻¹.

The next assay addresses T2, soluble human IL-31 receptor. Kind of assay: SPR (Biacore T100), antibody captured on Protein A, soluble human IL-31 receptor as analyte. On the procedure: The antigen-antibody reaction kinetics between anti-human IL-31 receptor antibody and soluble human IL-31 receptor was analyzed using Biacore T100 (GE Healthcare Biosciences). The antigen-antibody interaction was measured by immobilizing rec-Protein A (Zymed) (hereinafter “Protein A”) onto a sensor chip, capturing an antibody with the immobilized Protein A, and then reacting the antibody with the antigen as an analyte using a method known to those skilled in the art. […] In the first step of the measurement, the antibody in solution was bound to Protein A/G, and the analyte solution was allowed to interact with the antibody. After three minutes of interaction, the solution was switched to HBS-EP+, and the dissociation phase was monitored for five minutes. After measurement of the dissociation phase, the sensor chip was regenerated by washing with 10 μl of 10 mM glycine-HCl (pH 1.5). The association, dissociation, and regeneration constitute one analysis cycle. Each antibody was measured according to this cycle. The obtained sensorgrams were kinetically analyzed using the Biacore-specific data analysis software, Biacore T100 Evaluation Software (GE Healthcare Biosciences).
On to B10, for which the affinity, expressed as Kd, was 3.9 nM; the koff turned out to be 0.0016 s⁻¹; the kon came out at 420000 M⁻¹ s⁻¹.
Molecule B11 had a Kd of 3.6 nM, a koff of 0.0016 s⁻¹ and a kon of 440000 M⁻¹ s⁻¹.
In turn, B12 came in with a Kd of 3.3 nM, an off-rate (koff) of 0.0012 s⁻¹ and a kon of 370000 M⁻¹ s⁻¹.

Broadly, the Kd is the free concentration of one partner at which half of the binding sites on the other are occupied at equilibrium, for simple one-to-one binding. As a reminder, the koff is the rate constant with which the complex falls apart. The kon is the rate constant with which the complex forms.

These data come from US20150284465A1 (Chugai, published 2015).
